Test results taken from patent US20100272689A1, “Protease Having Algicidal Activity, Gene Encoding the Same and Algicidal Formulation Comprising the Same” (KOREA OCEAN RESEARCH & DEVELOPMENT INSTITUTE, priority 2007, published 2010).
Values joined by “and” are separate entries in the source; they are usually repeats but may differ in a detail not shown here. Equal entries are not always repeated.

B1: MED: protein of Leeuwenhoekiella blandensis MED217 with homology to KAOT1—10476 (protein, listed as Leeuwenhoekiella blandensis)
chain: MTSCSEDAEQTTLPEAQPTSNLEVSSEIIQQVEDLGMNANYVRWDDFYFPDGSSEPRLFLEEDVVVTPEQLSSMSANVEESKSGKGDSKQYRTSALVSQGRTISIIGYTGGSQALSQKERTALQWAVANYNRLSGVSISFNLTFGTDYQNKDMVVYNNTVNNPSGAGGSAGFPSNGLPYKFVQIYGLANYDTNVVEHVMTHEIGHSVGFRHTDWFSRQSCGQNVYEGGDANHVSGTPTGYDSTSIMLACFSANEDGEFNANDITALNNMY
modifications: Leeuwenhoekiella blandensis MED217 (ZP_01059780)
B2: KAOT1_11562: protein of Kordia algicida with high homology to KAOT1—10476 (protein, listed as Kordia algicida)
chain: MKRNFKIQMLYVLLTMLLLAGCQNDTEEELVEEATTAVERVDVKWLAPDDHPVVQLLYSRGYERGTIYETDEHFLAPPDLLYSKDINDYDLSDNGSNAEQAYNTGKLVSLNRMRINVFLDNSIGTDLQTQSVNAMNELNGINNCALFFVRVFNANQAQITIRSDFGAESNNVLGRAGFPSNGRPFDTVTLNVDRLDDFGADIRRNTIIHELGHCVGLRHTDWQANRERSAVNIPGTSANDTGSIMWHTINGGTPFTNGDLTAFRALFPRALRIDVVNEIDDYDYSGEIYVLDNVFVDVFTDGSYSTQTTLNRNVNVSYRINVQEYNHTSGTYYYSRNRTLTAGNNRYYIDDEEEECSPYQGETCTRQDLEIRLATSIL
modifications: Kordia algicida KAOT1_11562
B3: 10476—7: protein containing only mature protein, without signal peptide and processing peptide (protein, listed as Kordia algicida)
chain: QYRTNNLVSPGVITIIGYTGNNSNGLTTKMQTGLRWAVDNYNALNLSISFQLTFGTDYQNKDMVVYQVQGGAGGSAGFPSGGNPYKWVKINSGMAPYSNNVHEHVIGHEIGHSIGFRHSDYFSRQSCGQNSNEGSAGVGAIHIPGTPTGWDPTSLMNACFSSSEDGEFNGNDITALNFLY
modifications: KAOT1_10476 of Kordia algicida OT-1 lacking signal and processing peptide
B4: 10476—8: protein containing processing peptide and mature protein, without the signal peptide part (protein, listed as Kordia algicida)
chain: VVDEEQDTAIGIPQDVLQKAQSLHFNTFDMQEASFEKPNGKIEEGYMMEGDIFFTRDQLMNMELGGDITSKQYRTNNLVSPGVITIIGYTGNNSNGLTTKMQTGLRWAVDNYNALNLSISFQLTFGTDYQNKDMVVYQVQGGAGGSAGFPSGGNPYKWVKINSGMAPYSNNVHEHVIGHEIGHSIGFRHSDYFSRQSCGQNSNEGSAGVGAIHIPGTPTGWDPTSLMNACFSSSEDGEFNGNDITALNFLY
modifications: KAOT1_10476 of Kordia algicida OT-1 lacking signal peptide
notes: protein containing processing peptide and mature protein, without the signal peptide part

How the values were obtained:
Thalassiosira sp. = assay: Algicidal activity by cell count after 24 hr (Lugol staining); format: cell-based; conditions: 50 μl of protein (100 μg/ml), after 24 hr
Experimental: (§1) Organisms used as host for algicidal bacteria screen are Cochlodinium polykrikoides, Thalassiosira sp., Heterosigma akashiwo, Skeletonema costatum, Alexandrium sp., Gymnodium sp., Chaetoceros cuvisetus. Each algae cell was grown to log phase in F/2 broth (0.075 g NaNO3, 0.005 g NaH2PO4?H2O, 0.030 g Na2SiO3?9H2O, 1 ml F/2 trace metal solution, 1 ml F/2 vitamin solution and 1,000 ml aged seawater) [Stein, Handbook of phycological methods, Cambridge Univ. Press, 1973].
(§2) The cultured red tide organisms were diluted in F/2 broth to a final density of 0.05 (excitation wavelength=434 nm, emission wavelength=670 nm)on the fluorescent intensity using fluoro-spectrophotometer (Hitachi, Japan), and then 2.7 ml aliquots were dispensed into several test tubes (110 mm×10 mm) to prepare for the MPN (most probable number) method.
(§3) To measure algicidal activity of 10476—7 protein (SEQ ID NO:27), 50 μl of said protein (100 μg/ml) was added to the culture solutions of Cochlodinium polykrikoides, Thalassiosira sp., Heterosigma akashiwo, Skeletonema costatum, Alexandrium sp., Chaetoceros cuvisetus and Gymnodniium sp. which were prepared in Example 2. After 24 hr, said culture solutions were stained with 1% Lugol's iodine solution, and then the cell number was counted. Experimental groups with protease (experimental group 1 and 2) were compared with control group without protease in cell number and the degree of inhibition.
(§4) To check algicidal activity of proteins isolated Flavobacterium johnsoniae UW101 (ZP—01247095, SEQ ID NO: 4), Croceibacter atlanticus HTCC2559 (ZP—00951344, SEQ ID NO: 5), Leeuwenhoekiella blandensis MED217 (ZP—01059780, SEQ ID NO: 6) and Kordia algicida KAOT1—11562 (SEQ ID NO: 7), 50 μl of said protein (100 μg/ml) was added to the culture solutions of Cochlodinium polykrikoides, Thalassiosira sp., Heterosigma akashiwo, Skeletonema costatum, Alexandrium sp., Chaetoceros cuvisetus, and Gymnodium sp., which were prepared in Example 2. After 24 hr, said culture solutions were stained with 1% Lugol's iodine solution, and then the cell number was counted.
(§5) Experimental groups with protease (experimental group 1 and 2) were compared with control group without protease in cell number and the degree of inhibition.

[1] = system: Cochlodinium polykrikoides; assay: as above; format: cell-based; conditions: 50 μl of protein (100 μg/ml), after 24 hr; for Algicidal activity (degree of inhibition): Cochlodinium polykrikoides; for Cell number: ( ): standard deviation
Experimental: as §1, §2, §3, §4, §5

Heterosigma akashiwo = assay: as above; format: cell-based; conditions: 50 μl of protein (100 μg/ml), after 24 hr
Experimental: as §1, §2, §3, §4, §5

Alexandrium sp. = assay: as above; format: cell-based; conditions: 50 μl of protein (100 μg/ml), after 24 hr
Experimental: as §1, §2, §3, §4, §5

Chaetoceros cuvisetus = assay: as above; format: cell-based; conditions: 50 μl of protein (100 μg/ml), after 24 hr
Experimental: as §1, §2, §3, §4, §5

Gymnodinium sp. = assay: as above; format: cell-based; conditions: 50 μl of protein (100 μg/ml), after 24 hr
Experimental: as §1, §2, §3, §4, §5

Skeletonema costatum = assay: as above; format: cell-based; conditions: 50 μl of protein (100 μg/ml), after 24 hr
Experimental: as §1, §2, §3, §4, §5

gelatin [2] = assay: Protease activity at various temperature and pH; format: biochemical
Experimental: 10476—7 protein (SEQ ID NO: 27) containing only mature protein was suspended with SDS in combination with stabilization by using EDTA and resistance to detergent, and refolded by dilution using buffer solution containing 50 mM Tris-HCl, 1 mM EDTA and 1% triton X-100 except SDS, and then protease activity was measured at various temperature and pH according to the method as described above [Park, H. I., J. Biol. Chem., 275:20540-20544, 2000]. The results are shown in FIG. 9 and FIG. 10, respectively.

gelatin [3] = assay: Protease activity with zinc or calcium ion (gelatin, TCA supernatant); format: biochemical; conditions: 0.1% gelatin, pH 8.0, 20° C., 2 hr
Experimental: Also, 5 μg of refolded protein was added to buffer solution containing 0.1% gelatin, 50 mM Tris-HCl (pH 8.0), 100 mM KCl and 1 mM zinc or calcium ion, incubated at 20° C. for 2 hr, and then 5% TCA solution (w/v) was added to the solution, followed by stand for 10 min on ice. After centrifugation for 5 min at 10,000 rpm, the protein was measured using the supernatant. Inhibition of protease activity by metal ions was measured by comparing with control group without metal ion.

gelatin [4] = assay: Protease activity by electrophoresis on gelatin substrate gel; format: biochemical; conditions: refolded protein, FIG. 7
Experimental: Protease activity of proteases obtained according to Example 6 was measured using electrophoresis on gelatin substrate gel [Park, H. I., J. Biol. Chem., 275:20540-20544, 2000].

[5] = Experimental: To observe protein processing of the protease having algicidal activity according to the present invention, analysis of protease activity was performed as the same method of Example 7 except 10476—8 protein (SEQ ID NO: 26) which was reacted at 4° C. for a week, and then that was confirmed by SDS-PAGE (FIG. 8).

Row | Molecule | Algicidal activity (degree of inhibition) (Thalassiosira sp.) | Algicidal activity (degree of inhibition) [1] | Algicidal activity (degree of inhibition) (Heterosigma akashiwo) | Algicidal activity (degree of inhibition) (Alexandrium sp.) | Algicidal activity (degree of inhibition) (Chaetoceros cuvisetus) | Algicidal activity (degree of inhibition) (Gymnodinium sp.) | Algicidal activity (degree of inhibition) (Skeletonema costatum) | Temperature of optimal protease activity (gelatin [2]; FIG. 9) | pH of optimal protease activity (gelatin [2]; FIG. 10) | Effect of zinc ion on protease activity (gelatin [3]; FIG. 11) | Calcium ion concentration of maximal protease activity (gelatin [3]; FIG. 12) [mM] | Protease activity (gelatin [4]) | The degree of inhibition (%) ([1]; experimental group 1) | Cell number ([1]; experimental group 1) | The degree of inhibition (%) ([1]; experimental group 2) | Cell number ([1]; experimental group 2) | Time until turned into mature protease by degradation of processing peptide [5] [days]
1 | B1 | ++++ (++++ means >75% the degree of inhibition) | ++++ (++++ means >75% the degree of inhibition) | ++++ (++++ means >75% the degree of inhibition) | ++++ (++++ means >75% the degree of inhibition) | ++++ (++++ means >75% the degree of inhibition) | ++++ (++++ means >75% the degree of inhibition) | ++++ (++++ means >75% the degree of inhibition) | – | – | – | – | – | – | – | – | – | –
2 | B2 | ++++ (++++ means >75% the degree of inhibition) | ++++ (++++ means >75% the degree of inhibition) | ++++ (++++ means >75% the degree of inhibition) | ++++ (++++ means >75% the degree of inhibition) | ++++ (++++ means >75% the degree of inhibition) | ++++ (++++ means >75% the degree of inhibition) | + (+ means <25%) | – | – | – | – | – | – | – | – | – | –
3 | B3 | – | – | – | – | – | – | – | about 20 °C | 7-8 | inhibition of 10476—7 protein activity by zinc ion was confirmed | 80 to 100 | showed protease activity | 40.7 | 960(30) cell/ml and 940(60) cell/ml | 30.0 | 1040(90) cell/ml and 900(110) cell/ml | –
4 | B4 | – | – | – | – | – | – | – | – | – | – | – | showed protease activity | – | – | – | – | 3
